{"source": "paper doi:10.1101/2020.07.15.204859", "target": "T1, S. Typhimurium 14028S HNS (STM14_2116) (Salmonella enterica serovar Typhimurium 14028S), P0A1S2", "T1 chain": "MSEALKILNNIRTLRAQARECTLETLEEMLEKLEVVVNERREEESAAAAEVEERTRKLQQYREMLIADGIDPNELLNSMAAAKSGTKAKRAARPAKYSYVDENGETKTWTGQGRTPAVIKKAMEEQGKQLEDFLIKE", "assay": "SEC", "details": "remark: other sources report otherwise", "data": [{"binder": "S. Typhimurium 14028S HNS (STM14_2116), P0A1S2 1-137 (natural protein) MSEALKILNNIRTLRAQARECTLETLEEMLEKLEVVVNERREEESAAAAEVEERTRKLQQYREMLIADGIDPNELLNSMAAAKSGTKAKRAARPAKYSYVDENGETKTWTGQGRTPAVIKKAMEEQGKQLEDFLIKE", "values": [{"measurement": "stoichiometry N", "value": 2}]}]}
